# According to paper PMC12153317 (2025):
# Substitutions are numbered along the chain they refer to. “And” between values parts separate entries of the source, which are not always exact repeats. Identical values can stand only once.
# B1: S1V2-65 recombinant human IgG1 (antibody, V domains shown)
# VH: EVQLVQSGAEVKKPGETLKISCKGSGYSFTNYWIGWVRQMPGKGLECMGIIDPSDSETRYSPSFQGQVTISADKSTNTAFLQWSTVKASDTAIYYCARLGYGDSPPFDFWGQGAGVTVS
# VL: MTQSPLSLPVTPGESASISCRSSQSLLYSNGYNHLDWYVQKPGQPPQLLIFLGSTRASGVSDRVSGSGSGTDFTLQISRVEAEDVGVYYCMQALETPYTFGQGTKLEVK
# B2: S8V1-157 recombinant human IgG1 (antibody, V domains shown)
# VH: EVQLVQSGAEVKKPGASVKVSCKVSGYRLTALSMHWVRQAPGKGLEWMGGFDPEEDETIYAQNFQGRVTLTEDTSTDTVYMELSSLRSEDTGVYYCATLMGANPFDYWGQGTLIIVSG
# VL: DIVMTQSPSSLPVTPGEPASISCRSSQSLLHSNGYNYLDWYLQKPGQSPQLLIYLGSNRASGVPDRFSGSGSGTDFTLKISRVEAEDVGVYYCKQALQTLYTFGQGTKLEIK
# B3: S1V2-17 recombinant human IgG1 (antibody, V domains shown)
# VH: QVKLVQSGAEVKKPGASVKVSCKVSGYTLSELSIHWVRQVPGKGLESMGGFDPEDDGAIYAESFQGRVTMTEDTSTDTSFMELHSLRSEDTAVYYCVTWLVGTTVAAYWGQGTLVTVS
# VL: MTQTPFSLPVTPGEPASISCRSSQSLLYSNGYNHLDWYLQKPGQSPQLLIYLGSYRASGVPDRFSGSGSGTDFTLKISRVEADDVGVYYCMQALQAPRTFGQGTKVEIK
# B4: FI6v3 recombinant human IgG (antibody, V domains shown)
# VH: QVQLVESGGGVVQPGRSLRLSCAASGFTFSTYAMHWVRQAPGKGLEWVAVISYDANYKYYADSVKGRFTISRDNSKNTLYLQMNSLRAEDTAVYYCAKDSQLRSLLYFEWLSQGYFDYWGQGTLVTVSS
# VL: not shown
# B5: S1V2-60 recombinant human IgG1 (antibody, V domains shown)
# VH: EVQLVQSGAEVSEPGKSLKISCKGSAYSFINYWIGWVRQMPGKGLECMGIIDPSDSETRYNPSFEGHVLISADTSINTAYLQWSSLRASDTAMYYCVRLGYGDSPPFDSWGQGTLVTVS
# VL: B3 VL with T4S, L39Q, S45P, Y51F, Y55R, D83E, A96D, R98Y, V106L
# Target: all seasonal H3s (1968–2020) assayed (soluble HA ectodomains, ELISA) (influenza A virus)
# Assay: ELISA
row,Binder,Kd
1,B1,160 pM and 210 pM and 250 pM

# Target: pandemic H2 HA (soluble HA ectodomain, ELISA) (influenza A virus)
# Assay: ELISA
row,Binder,Kd
1,B2,2500 pM
2,B3,6500 pM
3,B4,360 pM
4,B1,10000 pM
5,B5,8800 pM

# Target: specific HAs not engaged in ELISA (soluble HA ectodomains) (influenza virus)
# Assay: ELISA
row,Binder,Kd
1,B2,> 100000 pM
2,B3,> 100000 pM
3,B1,> 100000 pM
4,B5,> 100000 pM

# Target: pre-pandemic H5 HAs (soluble HA ectodomains, ELISA) (influenza A virus)
# Assay: ELISA
row,Binder,Kd
1,B2,< 100 pM
2,B3,140 pM
3,B4,440 pM
4,B1,100 pM
5,B5,100 pM
